Experimental data: US20240262915A1 (NANJING SANHOME PHARMACEUTICAL, published 2024)
Where two headings read alike, the source gives them in different places.

T1: TIGIT-mFc (extracellular region of human TIGIT with mIgG1-Fc tag) (human)
T1 construct: A bought TIGIT-mFc (Acro Biosystems TIT-H5253) is used for immunization; also called recombinant humanized TIGIT-mFc
T1 chain: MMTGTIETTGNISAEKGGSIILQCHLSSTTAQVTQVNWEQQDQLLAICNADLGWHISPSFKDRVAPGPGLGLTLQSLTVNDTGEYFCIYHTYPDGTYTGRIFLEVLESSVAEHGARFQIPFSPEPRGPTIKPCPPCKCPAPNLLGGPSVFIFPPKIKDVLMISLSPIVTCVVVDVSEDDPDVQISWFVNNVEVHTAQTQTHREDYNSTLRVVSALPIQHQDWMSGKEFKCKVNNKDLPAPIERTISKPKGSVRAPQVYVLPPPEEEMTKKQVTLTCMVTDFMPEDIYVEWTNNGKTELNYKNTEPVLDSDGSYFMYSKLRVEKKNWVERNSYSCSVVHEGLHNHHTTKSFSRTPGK

T2: TIGIT-his (extracellular region of human TIGIT protein fused with his) (human, UniProt Q495A1 22-141)
T2 construct: also called antigen TIGIT-his
T2 sequence: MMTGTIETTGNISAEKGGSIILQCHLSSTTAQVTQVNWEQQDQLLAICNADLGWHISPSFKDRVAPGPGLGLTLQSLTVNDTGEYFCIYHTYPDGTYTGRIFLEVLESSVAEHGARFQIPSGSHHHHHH

T3: Human TIGIT-His protein (Sino Biological, 10917-H08H) (human, UniProt Q495A1 22-141)
T3 sequence (looked up): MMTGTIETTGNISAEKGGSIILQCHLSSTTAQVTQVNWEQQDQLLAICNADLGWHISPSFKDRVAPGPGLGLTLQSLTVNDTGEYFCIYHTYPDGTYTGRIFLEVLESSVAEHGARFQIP

T4: full-length TIGIT on hTIGIT-CHO-K1 cells (human, UniProt Q495A1 22-244)
T4 construct: CHO-K1 cells stably transfected with pTargeT-TIGIT; also called TIGIT on cell surface
T4 sequence: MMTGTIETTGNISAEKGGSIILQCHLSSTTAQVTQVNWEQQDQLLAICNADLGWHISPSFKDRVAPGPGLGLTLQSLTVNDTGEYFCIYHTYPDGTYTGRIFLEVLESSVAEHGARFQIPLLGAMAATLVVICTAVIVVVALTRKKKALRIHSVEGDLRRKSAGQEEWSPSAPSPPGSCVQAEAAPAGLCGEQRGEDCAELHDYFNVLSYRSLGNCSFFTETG


Tests used:
[1] = molecular target: T1, TIGIT-mFc (extracellular region of …); test: FACS, blocking of TIGIT-mFc binding to cells (TIGIT/CD155; cells printed as hTIGIT-CHO-K1)
[2] = molecular target: T5, PD-L1-his (human, UniProt Q9NZQ7 19-238, limits assumed); test: BLI, Fortebio Octet RED96, antibody on AHC sensor, PD-L1-his in solution
T5 construct: also called human PD-L1 protein

[3] = molecular target: T6, human PD-L1 on hPD-L1-CHO-K1 cells (human, UniProt Q9NZQ7 19-290); test: FACS on hPD-L1-CHO-K1 cells
T6 construct: whole, on cells; The making of this cell line is not described

[4] = molecular target: T2, TIGIT-his (extracellular region of …); test: BLI, Fortebio Octet RED96, antibody on AHC sensor, TIGIT-his in solution
[5] = molecular target: T1, TIGIT-mFc (extracellular region of …); test: ELISA, blocking of TIGIT-mFc binding to coated CD155-hFc (competitor CD155-hFc)
[6] = molecular target: T3, Human TIGIT-His protein (Sino …); test: ELISA, human TIGIT-His coated
[7] = molecular target: T4, full-length TIGIT on hTIGIT-CHO-K1 cells; test: FACS on hTIGIT-CHO-K1 cells
[8] = molecular target: T2, TIGIT-his (extracellular region of …); test: BLI, Fortebio Octet RED96, SA sensor
[9] = molecular target: T4, full-length TIGIT on hTIGIT-CHO-K1 cells; test: FACS on hTIGIT-CHO-K1 cells; remark: listed apart in the source
[10] = molecular target: T6, human PD-L1 on hPD-L1-CHO-K1 cells; test: FACS, blocking of PD-1-mFc binding to hPD-L1-CHO-K1 cells (competitor PD-1-mFc)

T6 sequence (Q9NZQ7 19-290): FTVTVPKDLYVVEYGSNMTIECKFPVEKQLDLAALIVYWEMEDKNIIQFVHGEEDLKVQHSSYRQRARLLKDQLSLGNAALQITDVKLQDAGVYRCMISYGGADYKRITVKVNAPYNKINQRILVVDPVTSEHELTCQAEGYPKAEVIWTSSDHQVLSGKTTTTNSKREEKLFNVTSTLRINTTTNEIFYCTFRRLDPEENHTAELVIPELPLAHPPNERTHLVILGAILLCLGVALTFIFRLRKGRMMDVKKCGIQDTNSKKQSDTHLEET
T5 sequence (Q9NZQ7 19-238 limits assumed): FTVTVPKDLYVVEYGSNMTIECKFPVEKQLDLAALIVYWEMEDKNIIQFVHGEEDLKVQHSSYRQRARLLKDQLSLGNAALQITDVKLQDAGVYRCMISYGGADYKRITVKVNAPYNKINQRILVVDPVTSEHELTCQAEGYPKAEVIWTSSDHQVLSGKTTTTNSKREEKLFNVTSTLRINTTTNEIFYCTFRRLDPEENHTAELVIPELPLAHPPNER

Binder | IC50 [1] | Kd [2] | koff [2] | kon [2] | EC50 [3] | Kd [4] | koff [4] | kon [4] | IC50 [5] | EC50 [6] | EC50 [7] | Kd [8] | koff [8] | kon [8] | EC50 [9] | IC50 [10]
HuPL721-T2353-ScFab (bispecific antibody, human IgG4 S228P, kappa, each is light chain - GGGGS linker - heavy chain, IgG4) chain 1: DIQMTQSPSSLSASVGDRVTITCRTSQDIGNSLRWFQQKPGKAPKLLIHGATNLANGVPSRFSGSGSGTDFTLTISSLQPEDFATYYCLQHNEYPLTFGCGTKLEIKRTVAAPSVFIFPPSDEQLKSGTASVVCLLNNFYPREAKVQWKVDNALQSGNSQESVTEQDSKDSTYSLSSTLTLSKADYEKHKVYACEVTHQGLSSPVTKSFNRGECGGGGSGGGGSGGGGSGGGGSGGGGSGGGGSGGGGSGGGGSEVQLVESGGGLVQPGGSLRLSCAASGFTFSDHWMSWVRQAPGKCMEWIGNIQYDGSYTNYAPSLKNRFTISRDNAKNSLYLQMNSLRAEDTATYYCTRGHFRITMASMGASASVYWGQGTMVTVSSASTKGPSVFPLAPCSRSTSESTAALGCLVKDYFPEPVTVSWNSGALTSGVHTFPAVLQSSGLYSLSSVVTVPSSSLGTKTYTCNVDHKPSNTKVDKRVESKYGPPCPPCPAPEFLGGPSVFLFPPKPKDTLMISRTPEVTCVVVDVSQEDPEVQFNWYVDGVEVHNAKTKPREEQFNSTYRVVSVLTVLHQDWLNGKEYKCKVSNKGLPSSIEKTISKAKGQPREPQVYTLPPCQEEMTKNQVSLWCLVKGFYPSDIAVEWESNGQPENNYKTTPPVLDSDGSFFLYSRLTVDKSRWQEGNVFSCSVMHEALHNHYTQKSLSLSLGK chain 2: not shown | 4.08 nM | 1.32 nM | 0.000273 s⁻¹ | 207000 M⁻¹ s⁻¹ | 1.77 nM | 3.06 nM | 0.00333 s⁻¹ | 1.09e+06 M⁻¹ s⁻¹ | – | – | – | – | – | – | 1.3 nM | 3.19 nM
HuPL1642-T2353-ScFab (bispecific antibody, human IgG4 S228P, kappa) chain 1: DIQMTQSPSSLSASVGDRVTITCRTSQDIGNSLRWFQQKPGKAPKLLIHGATNLANGVPSRFSGSGSGTDFTLTISSLQPEDFATYYCLQHNEYPLTFGCGTKLEIKRTVAAPSVFIFPPSDEQLKSGTASVVCLLNNFYPREAKVQWKVDNALQSGNSQESVTEQDSKDSTYSLSSTLTLSKADYEKHKVYACEVTHQGLSSPVTKSFNRGECGGGGSGGGGSGGGGSGGGGSGGGGSGGGGSGGGGSGGGGSEVQLVESGGGLVQPGGSLRLSCAASGFTFSDHWMSWVRQAPGKCMEWIGNIQYDGSYTNYAPSLKNRFTISRDNAKNSLYLQMNSLRAEDTATYYCTRGHFRITMASMGASASVYWGQGTMVTVSSASTKGPSVFPLAPCSRSTSESTAALGCLVKDYFPEPVTVSWNSGALTSGVHTFPAVLQSSGLYSLSSVVTVPSSSLGTKTYTCNVDHKPSNTKVDKRVESKYGPPCPPCPAPEFLGGPSVFLFPPKPKDTLMISRTPEVTCVVVDVSQEDPEVQFNWYVDGVEVHNAKTKPREEQFNSTYRVVSVLTVLHQDWLNGKEYKCKVSNKGLPSSIEKTISKAKGQPREPQVYTLPPCQEEMTKNQVSLWCLVKGFYPSDIAVEWESNGQPENNYKTTPPVLDSDGSFFLYSRLTVDKSRWQEGNVFSCSVMHEALHNHYTQKSLSLSLGK chain 2: DIVMTQSPDSLAVSLGERVTMRCKSSQSLSWSENQNNYLSWYQQKPGQPPKLLIYGASIRESGVPDRFSGSGSGTDFTLTISSVQAEDVGVYYCQHNHGSFLPYTFGCGTKLEIKRTVAAPSVFIFPPSDEQLKSGTASVVCLLNNFYPREAKVQWKVDNALQSGNSQESVTEQDSKDSTYSLSSTLTLSKADYEKHKVYACEVTHQGLSSPVTKSFNRGECGGGGSGGGGSGGGGSGGGGSGGGGSGGGGSGGGGSGGGGSQVQLVQSGAEVAKPGASVKMSCKASGYTFTRNTMHWIKQAPGQCLEWIGFIDPHNTYTRYNQKFKDRATLTADTSASTAYMELSSLRSEDTAVYYCARWPMDYWGQGTLVTVSSASTKGPSVFPLAPCSRSTSESTAALGCLVKDYFPEPVTVSWNSGALTSGVHTFPAVLQSSGLYSLSSVVTVPSSSLGTKTYTCNVDHKPSNTKVDKRVESKYGPPCPPCPAPEFLGGPSVFLFPPKPKDTLMISRTPEVTCVVVDVSQEDPEVQFNWYVDGVEVHNAKTKPREEQFNSTYRVVSVLTVLHQDWLNGKEYKCKVSNKGLPSSIEKTISKAKGQPREPQVCTLPPSQEEMTKNQVSLSCAVKGFYPSDIAVEWESNGQPENNYKTTPPVLDSDGSFFLVSRLTVDKSRWQEGNVFSCSVMHEALHNHYTQKSLSLSLGK | 1.51 nM | 1.15 nM | 0.000212 s⁻¹ | 184000 M⁻¹ s⁻¹ | – | 13.9 nM | 0.00487 s⁻¹ | 350000 M⁻¹ s⁻¹ | – | – | – | – | – | – | – | –

These reach a lower Kd [4]. Values come first.

IC50 [1] | Kd [2] | koff [2] | kon [2] | EC50 [3] | Kd [4] | koff [4] | kon [4] | IC50 [5] | EC50 [6] | EC50 [7] | Kd [8] | koff [8] | kon [8] | EC50 [9] | IC50 [10] | Binder
1.68 nM | 2.08 nM | 0.000326 s⁻¹ | 157000 M⁻¹ s⁻¹ | 0.955 nM | 2.74 nM | 0.00239 s⁻¹ | 872000 M⁻¹ s⁻¹ | – | – | – | – | – | – | – | – | HuPL1642-T2353-ScFv (bispecific antibody, human IgG4 S228P, kappa, Symmetrical structure: PL1642-T2353-scFv-HC and HuPL1642-VL2) heavy: not shown light: DIVMTQSPDSLAVSLGERVTMRCKSSQSLSWSENQNNYLSWYQQKPGQPPKLLIYGASIRESGVPDRFSGSGSGTDFTLTISSVQAEDVGVYYCQHNHGSFLPYTFGQGTKLEIKRTVAAPSVFIFPPSDEQLKSGTASVVCLLNNFYPREAKVQWKVDNALQSGNSQESVTEQDSKDSTYSLSSTLTLSKADYEKHKVYACEVTHQGLSSPVTKSFNRGEC
– | – | – | – | – | 2.43 nM | 0.00192 s⁻¹ | 792000 M⁻¹ s⁻¹ | 1.01 nM | 2.43 nM | 0.199 nM | 1.14 nM | 0.00151 s⁻¹ | 1.33e+06 M⁻¹ s⁻¹ | – | – | SHS006-T-Hu23-53 (antibody, IgG4, V domains shown, Humanized; also called SHS006-HuT23-53; HuT23-53) VH: EVQLVESGGGLVQPGGSLRLSCAASGFTFSDHWMSWVRQAPGKTMEWIGNIQYDGSYTNYAPSLKNRFTISRDNAKNSLYLQMNSLRAEDTATYYCTRGHFRITMASMGASASVYWGQGTMVTVSS VL: DIQMTQSPSSLSASVGDRVTITCRTSQDIGNSLRWFQQKPGKAPKLLIHGATNLANGVPSRFSGSGSGTDFTLTISSLQPEDFATYYCLQHNEYPLTFGQGTKLEIK
